In article PMC10290082, “Tau protein binds to the P53 E3 ubiquitin ligase MDM2” (Scientific Reports, 2023):

Target: T1, recombinant human MDM2 (human, UniProt Q00987 1-491)
T1 construct: E3 ubiquitin-protein ligase MDM2, human; source: bought: Biotechne (E3-204-050)
Assay: pull-down; purified recombinant proteins (15 ng), alone or together, on beads coupled to the pDIQ peptide; uncoupled beads as control; western blot
Conditions: both partners purified

T1 sequence (Q00987 whole entry): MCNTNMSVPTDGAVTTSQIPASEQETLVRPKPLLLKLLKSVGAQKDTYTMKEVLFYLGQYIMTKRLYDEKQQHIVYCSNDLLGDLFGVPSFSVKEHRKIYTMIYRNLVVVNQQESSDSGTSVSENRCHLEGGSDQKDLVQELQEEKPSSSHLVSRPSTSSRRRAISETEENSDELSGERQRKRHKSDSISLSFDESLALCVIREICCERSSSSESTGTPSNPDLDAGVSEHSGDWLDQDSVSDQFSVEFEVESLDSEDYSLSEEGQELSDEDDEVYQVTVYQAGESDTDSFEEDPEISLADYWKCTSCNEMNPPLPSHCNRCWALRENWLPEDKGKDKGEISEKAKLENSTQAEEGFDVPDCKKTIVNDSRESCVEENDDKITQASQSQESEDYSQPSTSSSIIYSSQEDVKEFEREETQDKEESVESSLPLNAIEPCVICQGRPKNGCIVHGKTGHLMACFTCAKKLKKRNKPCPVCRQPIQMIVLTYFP

binding result: binds
B1: pDIQ peptide (peptide)
peptide: ETFEHWWSQLLSGGC
